Laboratory results published in the RNAGym collection of RNA variant scans (doi:10.1073/pnas.2313332121).
Variants at the floor of the assay were thinned out.

B1: TPR 5TU (parent)
chain: GGAUCUUCUCGAUCUAACAAAAAAGACAAAUCUGCCACAAAGCUUGAGAGCAUCUUCGGAUGCAGAGGCGGCAGCCUUCGGUGGCGCGAUAGCGCCAACGUUCUCAACUAUGACACGCAAAACGCGUGCUCCGUUGAAUGGAGUUUAUCAUG

Variants of: B1
Assay: polymerase ribozyme fitness, log enrichment relative to wild type (log ratio); higher = more active; in vitro selection for triplet polymerase activity
In short: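 Both subunits of a heterodimeric triplet polymerase ribozyme were given their own mutant library, built by PCR and transcribed. Each library was annealed with a biotinylated primer, the partner subunit and triplets, incubated frozen at −7 °C, and its extended constructs gel-excised, captured on streptavidin beads and amplified by RT-PCR, all in one round done in triplicate. Fitness is the logarithm of genotype enrichment relative to wild-type enrichment, with replicates averaged by inverse-variance weighting. That logarithm is base 2, and Illumina-sequenced genotypes needed ≥10 input reads and ≥1 read per output.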

| Variant | polymerase ribozyme fitness (log ratio) |
| --- | --- |
| C105U U130A C131G G140U | -3.96 |
| A106G A119C C125U | -0.389 |
| G94C C96U | -1.08 |
| A113G A122U G136A U148A | -3.76 |
| U104G U145G | -0.945 |
| C96U A110G C114U A142G | -4.07 |
| A97U C123U | 0.268 |
| A113C C116A | ≤ -4.2 |
| A119C G133C | -1.83 |
| G94C C96U A113U A115U U130C A137G | ≤ -4.2 |
| C96U G128A U130G | ≤ -4.2 |
| A107U A120U C123A | -3.58 |
| C114G G133C | -3.93 |
| G94U A142G | -3.45 |
| A119C U139C A142C | -4.13 |
| C96U G128U A147C | -3.7 |
| U102G A121G | -2.33 |
| C103A A142U | -3.79 |
| G94C C103U | -0.0253 |
| A97G C103A | -0.693 |
| C95U C99G G117A A120C A122G | -1.97 |
| U109A U135C | -3.36 |
| C93U G136U | -3.31 |
| A120U | -0.233 |

| Variant | polymerase ribozyme fitness (log ratio) |
| --- | --- |
| A120G | 0.00404 |
| A120C | -0.331 |
| C108U U146A | -2.84 |
| C116A U139A U148A | -4.12 |
| C96U G136U | -2.74 |
| C96U G136A | 0.246 |
| C96G C103A | -2.09 |
| C108U G117U A120G | -3.18 |
| A113C G128A | -4.02 |
| C125G U145G | -2.69 |
| A97U C118G A121G | -1.56 |
| G94A C116U A122U | -0.787 |
| U101A C131U | 0.454 |
| A115U G141U | -1.29 |
| A107G U144G | -3.59 |
| C96A U135A | -1.48 |
| G94C G143A | -1.86 |
| C95U G100U U148G | ≤ -4.2 |
| C123U G141U | -0.894 |
| A113G C118G | -1.86 |
| C105U G124A | 0.519 |
| C123G G141C | -0.168 |
| G124A G133U U135C | -3.82 |
| C96G U104G G141U | -1.2 |

| Variant | polymerase ribozyme fitness (log ratio) |
| --- | --- |
| C96A U127C | -1.71 |
| G124A U127C | -2.79 |
| U102A A119C G141C | -2.4 |
| A98G A119U C125A U151G | ≤ -4.2 |
| C96U G140C | -3.73 |
| C96U G140U | -3.33 |
| G124U G141U | 0.513 |
| G94C C132U | -1.26 |
| A115G G140U | -3.41 |
| C96U A137C | -3.39 |
| A122C C125A G140A G143U | ≤ -4.2 |
| A110G G117A U144A | -4.15 |
| A107G C125A | -3.63 |
| U101C U102G A106G | -1.84 |
| A98U U135A | -2.55 |
| C96U C99A | -1.51 |
| C96U C99U | -0.378 |
| A120G U127C | -2.22 |
| A121U C131U U134A | -2.42 |
| C116U A142C | -1.1 |
| G94A A97G G124A | -1.65 |
| C105A A150C | -3.93 |
| C93U U109G U144G | -1.39 |
| A107G G117U | -4.04 |

| Variant | polymerase ribozyme fitness (log ratio) |
| --- | --- |
| A97G C99U A142G | -1.1 |
| C95U C116G A138G | -3.58 |
| C103A A106G | -0.927 |
| A98G C118A C129A | -2.75 |
| A113U U134C | -2.77 |
| A122C C125A | -0.874 |
| G126A G140U | -3.43 |
| G94A G143C | -2.41 |
| U109G U151C | -3.91 |
| G117C A137G | -0.587 |
| C96U A150C | -3.31 |
| C96U A150U | -0.525 |
| C96U G100C | -3.97 |
| C116G G143A | -2.16 |
| C116G A122G | -0.408 |
| C96G A107C C108A A120U G136U | -3.81 |
| C95U C116G | 0.0419 |
| A106C U134C | 0.274 |
| C125G U134A G140A | ≤ -4.2 |
| C96U G128U | -3.45 |
| C99A A150G | -3.11 |
| C96A A122U | -0.0649 |
| A106G U109C | -3.91 |
| A98G | -0.208 |

| Variant | polymerase ribozyme fitness (log ratio) |
| --- | --- |
| A98U | -0.453 |
| C118A U139G | -0.933 |
| G100C A137G G141C U148A | ≤ -4.2 |
| C95A C96G | -2.25 |
| G100U U151A | ≤ -4.2 |
| G94A A137U | -3.87 |
| G94A U102G G133A | ≤ -4.2 |
| U102G U146G | -4.17 |
| A122C | -0.398 |
| A122G | -0.303 |
| A122U | -0.218 |
| G94A C125U | -1.67 |
| G94C G140A | -3.95 |
| C96U G124C | -0.743 |
| C99G C108U | -4.14 |
| C96U U102G G141C | -4.12 |
| A120G U134G U148G | -3.72 |
| U101G U145G | -0.0241 |
| U102G G141U | -1.98 |
| C96A C118A | -0.912 |
| C108U G141U | -3.1 |
| A106G C118A | -0.47 |
| G94C U127A | -3.75 |
| C96A U102A G143C | -4.16 |

| Variant | polymerase ribozyme fitness (log ratio) |
| --- | --- |
| C103G U145C | -1.74 |
| C96G C105U A113C A121U | -2.76 |
| C96G G152C | -3.62 |
| G94C C103U A119C C125A | -2 |
| C116A C123U C125U | -3.41 |
| C96U C125G | -0.976 |
| G126A U135C | -1.38 |
| A106G G141U | 2.01 |
| U101G G126U | 0.138 |
| C96A A113U U144A | -2.58 |
| G94A C118A | -0.879 |
| G94A C118G | -1.61 |
| C105U G143U | -2.41 |
| U109C | -2.81 |
| U109G | -0.578 |
| U109A | -1.11 |
| C96U G141U | -0.301 |
| C95U C131A C132U | -3.79 |
| A98U U146G A150U | -0.247 |
| G94U G143A | -1.67 |
| C99G C132U | -1.96 |
| C103A G141U | -3.08 |
| C93U U148G | -3.7 |
| A97U G124U C149G | -3.65 |

| Variant | polymerase ribozyme fitness (log ratio) |
| --- | --- |
| A106C A115U A120C G136C | -3.11 |
| C96U U127C | -1.34 |
| U109C C116U C131U A147U | -1.68 |
| A113C U135A G136A | -4.05 |
| G94A G124A U146A | -1.09 |
| C108G U144C | -4.13 |
| G100U C125G | -4.05 |
| C99A | -0.806 |
| C99G | -0.744 |
| C99U | -0.26 |
| C114G G143A | ≤ -4.2 |
| A110G U144G | -3.13 |
| A97U A98G | -2.31 |
| C96U C125A U144G | -0.161 |
| A97G G112A A121C G141U | ≤ -4.2 |
| A98G G140C | -3.59 |
| C96G U111C | -3.62 |
| C95U U101C | -0.173 |
| C96U A115U G124C U151C | ≤ -4.2 |
| G94C C96U G112C U146C | ≤ -4.2 |
| C105U C116U G133U A142C C149U | -4.08 |
| A110U C123U A142C | ≤ -4.2 |
| A97U A150G | -1.61 |
